Data on 6 molecules can be found in paper PMC11940065, “Conformational Analyses of the AHD1-UBAN Region of TNIP1 Highlight Key Amino Acids for Interaction with Ubiquitin” (Biomolecules, 2025).

The chains are these.
B1: WT AHD1-UBAN (TNIP1 417-509) (domain or fragment, human, UniProt Q15025 417-509, looked up)
chain: QRLNKALEEALSIQTPPSSPPTAFGSPEGAGALLRKQELVTQNELLKQQVKIFEEDFQRERSDRERMNEEKEELKKQVEKLQAQVTLSNAQLK
notes: TNIP1 (ABIN1), human, amino acids 417-509, the contiguous AHD1 and UBAN domains with their linker; In pET-28a(+); 15N-labelled for NMR; labelled with RED-tris-NTA dye on the His tag for MST; also called wildtype; ABIN1 AHD1-UBAN; source: E. coli Rosetta2 (DE3), purified (IMAC, SEC)
B2: AHD1-UBAN P436W (domain or fragment, human, UniProt Q15025 417-509, looked up)
chain: B1 chain with P20W
notes: TNIP1 (ABIN1), human, amino acids 417-509 with P436W; source: E. coli Rosetta2 (DE3), purified (IMAC, SEC)
B3: AHD1-UBAN E425W (domain or fragment, human, UniProt Q15025 417-509, looked up)
chain: B1 chain with E9W
notes: TNIP1 (ABIN1), human, amino acids 417-509 with E425W; source: E. coli Rosetta2 (DE3), purified (IMAC, SEC)
B4: AHD1-UBAN E425Q (domain or fragment, human, UniProt Q15025 417-509, looked up)
chain: B1 chain with E9Q
notes: TNIP1 (ABIN1), human, amino acids 417-509 with E425Q; source: E. coli Rosetta2 (DE3), purified (IMAC, SEC)
B5: AHD1-UBAN E444Q (domain or fragment, human, UniProt Q15025 417-509, looked up)
chain: B1 chain with E28Q
notes: TNIP1 (ABIN1), human, amino acids 417-509 with E444Q; source: E. coli Rosetta2 (DE3), purified (IMAC, SEC)
B6: AHD1-UBAN E444F (domain or fragment, human, UniProt Q15025 417-509, looked up)
chain: B1 chain with E28F
notes: TNIP1 (ABIN1), human, amino acids 417-509 with E444F; source: E. coli Rosetta2 (DE3), purified (IMAC, SEC)

Changes are numbered by the printed parent chain. Names and notes keep the numbering of the source.

The target in one assay is T1, Methionine-1-linked triubiquitin (UniProt P0CG48 1-76; P0CG48 1-76; P0CG48 1-76).
T1 construct: ubiquitin, unit 1 of 3, joined head to tail (M1-linked) on one chain; ubiquitin, unit 2 of 3, joined head to tail (M1-linked) on one chain; ubiquitin, unit 3 of 3, joined head to tail (M1-linked) on one chain; also called M1-triUb; M1-linked triubiquitin; source: bacterial production, purified (IMAC, SEC)
T1 sequence (P0CG48 1-228, one chain of several): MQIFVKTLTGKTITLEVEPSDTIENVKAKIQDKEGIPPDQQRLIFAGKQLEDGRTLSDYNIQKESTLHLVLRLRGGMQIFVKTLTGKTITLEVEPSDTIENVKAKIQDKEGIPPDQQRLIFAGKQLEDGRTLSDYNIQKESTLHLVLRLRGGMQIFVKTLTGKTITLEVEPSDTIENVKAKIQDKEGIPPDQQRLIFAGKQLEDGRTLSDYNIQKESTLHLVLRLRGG
As to the kind of experiment: MST; AHD1-UBAN labelled with RED-tris-NTA 2nd generation dye on its 6x-histidine tag; 16-step 2-fold serial dilution of M1-triUb from 40 µM to 610 pM; standard capillaries, Monolith X, MST power 40%, 23 °C; n = 2. Conditions: both partners purified.
In turn, B1 returned a Kd of 3.85 ± 0.89 µM.
B2 yielded a Kd of 8.38 ± 0.77 µM.
Molecule B3 registered a Kd of 7.41 ± 2.28 µM.

For another assay, the target named is T1, Methionine-1-linked triubiquitin. Put plainly: far-UV circular dichroism difference spectra; 1:1 molar mixture, each protein at 10 µM, 50 mM sodium phosphate pH 8.0, room temperature; compared with the mathematical average of the two separate spectra. To be noted: both partners purified.
As for B4, the binding result is given as “binds”.
For the molecule B5, the binding result is on record as “binds”.
Same read-out and setting: with B6 the entry was “binds”.
